Results on one molecule are retold here after paper PMC3285612, “Simukunin from the Salivary Glands of the Black Fly Simulium vittatum Inhibits Enzymes That Regulate Clotting and Inflammatory Responses” (PLoS ONE, 2012).

For assay [1], the target named is T1, cathepsin G (human, UniProt P08311 21-244).
T1 construct: cathepsin G, human; source: bought: Enzo Life Sciences
T1 sequence (looked up): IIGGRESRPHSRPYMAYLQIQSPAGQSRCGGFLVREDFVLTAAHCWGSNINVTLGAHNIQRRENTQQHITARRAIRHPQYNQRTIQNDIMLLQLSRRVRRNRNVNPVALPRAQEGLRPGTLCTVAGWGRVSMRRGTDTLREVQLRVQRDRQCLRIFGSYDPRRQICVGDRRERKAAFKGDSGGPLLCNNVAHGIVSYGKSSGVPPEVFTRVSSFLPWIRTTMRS
As to the kind of experiment: enzyme inhibition assay (Ki from IC50 by Cheng and Prusoff); rSimukunin titrated against a constant concentration of enzyme, pre-incubated 5 min, fluorogenic peptidyl substrate 250 µM, 30°C; Ki calculated from the IC50 and the substrate's Km; estimated. The note with it: both partners purified.

The target in assay [2] is T2, elastase (purified from human sputum) (human, UniProt P08246 30-267).
T2 construct: elastase, human, purified from sputum; the discussion speaks of it as a component of neutrophil azurophil granules (neutrophil elastase); source: bought: Molecular Innovations, purified from human sputum (SPR); bought: Elastin Products (enzyme assays)
T2 sequence (looked up): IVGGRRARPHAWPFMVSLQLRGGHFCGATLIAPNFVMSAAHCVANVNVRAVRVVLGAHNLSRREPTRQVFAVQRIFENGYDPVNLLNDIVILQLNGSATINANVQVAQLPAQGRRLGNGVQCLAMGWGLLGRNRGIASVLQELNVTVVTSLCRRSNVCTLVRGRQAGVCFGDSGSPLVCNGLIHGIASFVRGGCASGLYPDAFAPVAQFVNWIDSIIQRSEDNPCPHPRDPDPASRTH
The description is as above. The note with it: both partners purified.

Assay [3] deals with kallikrein (human, UniProt P03952 20-638). Briefly: cell-based or functional assay.
kallikrein, sequence (P03952 20-638): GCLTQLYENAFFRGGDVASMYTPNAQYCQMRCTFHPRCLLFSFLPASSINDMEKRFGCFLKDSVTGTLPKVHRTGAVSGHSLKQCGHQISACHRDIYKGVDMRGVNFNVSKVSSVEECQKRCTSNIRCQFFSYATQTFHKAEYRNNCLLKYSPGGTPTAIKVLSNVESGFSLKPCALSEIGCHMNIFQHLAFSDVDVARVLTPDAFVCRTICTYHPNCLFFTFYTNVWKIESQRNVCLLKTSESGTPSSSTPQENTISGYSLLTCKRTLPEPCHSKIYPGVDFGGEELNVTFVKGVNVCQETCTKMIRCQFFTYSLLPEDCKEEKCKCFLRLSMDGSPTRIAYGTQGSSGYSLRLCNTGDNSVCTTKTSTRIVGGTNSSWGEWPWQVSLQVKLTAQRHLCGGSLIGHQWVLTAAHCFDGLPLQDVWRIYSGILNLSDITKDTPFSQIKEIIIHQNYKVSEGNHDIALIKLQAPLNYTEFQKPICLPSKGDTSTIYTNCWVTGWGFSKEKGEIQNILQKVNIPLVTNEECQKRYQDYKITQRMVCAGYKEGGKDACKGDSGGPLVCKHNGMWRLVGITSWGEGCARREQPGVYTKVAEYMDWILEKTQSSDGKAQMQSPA
Assay [4] deals with T1, cathepsin G. Briefly: cell-based or functional assay.
Assay [5] has as its target activated coagulation factor XI (FXIa) (human). As to the kind of experiment: cell-based or functional assay.
Assay [6] has as its target skin β-tryptase (human, UniProt Q15661 19-275). As to the kind of experiment: cell-based or functional assay.
Assay [7] has as its target trypsin (sequencing grade) (human, UniProt P07477 16-247). Briefly: cell-based or functional assay.
For assay [8], the target named is plasmin (human). Briefly: cell-based or functional assay.
plasmin (human), sequence (P00747 20-580, chain 1 of 2): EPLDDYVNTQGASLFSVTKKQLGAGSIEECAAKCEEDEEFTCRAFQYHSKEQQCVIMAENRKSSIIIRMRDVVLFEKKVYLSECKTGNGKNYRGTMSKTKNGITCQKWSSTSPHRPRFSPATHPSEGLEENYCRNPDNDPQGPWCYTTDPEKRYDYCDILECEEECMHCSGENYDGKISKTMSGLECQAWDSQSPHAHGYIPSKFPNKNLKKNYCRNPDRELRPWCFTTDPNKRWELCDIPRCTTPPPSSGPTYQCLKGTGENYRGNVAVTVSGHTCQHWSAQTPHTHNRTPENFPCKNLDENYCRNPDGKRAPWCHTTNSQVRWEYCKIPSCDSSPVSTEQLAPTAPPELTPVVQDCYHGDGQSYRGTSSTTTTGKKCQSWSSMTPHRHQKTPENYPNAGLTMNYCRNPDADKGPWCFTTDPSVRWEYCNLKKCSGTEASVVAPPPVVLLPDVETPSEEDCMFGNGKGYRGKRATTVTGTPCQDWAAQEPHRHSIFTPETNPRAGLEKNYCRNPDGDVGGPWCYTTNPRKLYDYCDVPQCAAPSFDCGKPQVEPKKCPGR
plasmin (human), sequence (P00747 581-810, chain 2 of 2): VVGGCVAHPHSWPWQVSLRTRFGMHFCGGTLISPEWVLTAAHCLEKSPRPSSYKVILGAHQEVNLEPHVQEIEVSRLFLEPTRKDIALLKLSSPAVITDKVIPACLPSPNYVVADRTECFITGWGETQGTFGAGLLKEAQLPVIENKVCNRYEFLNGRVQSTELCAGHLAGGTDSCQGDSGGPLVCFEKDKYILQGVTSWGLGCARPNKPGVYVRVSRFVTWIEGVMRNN
The target in assay [9] is T2, elastase (purified from human sputum). As to the kind of experiment: cell-based or functional assay.
Assay [10] shares this target. Briefly: SPR; kinetics: rSimukunin immobilised on a CM5 chip by amine coupling (475.3 RU); FXa 3.1-50 nM or elastase 0.45-3.75 nM injected for 180 s at 30 µl/minute, 25°C; HBS-P (10 mM Hepes pH 7.4, 150 mM NaCl, 0.005% P20); global fit to a 1:1 Langmuir model. The note with it: both partners purified. For orientation: Surface plasmon resonance follows binding to a sensor surface in real time, without labels.

skin β-tryptase, sequence (Q15661 19-275): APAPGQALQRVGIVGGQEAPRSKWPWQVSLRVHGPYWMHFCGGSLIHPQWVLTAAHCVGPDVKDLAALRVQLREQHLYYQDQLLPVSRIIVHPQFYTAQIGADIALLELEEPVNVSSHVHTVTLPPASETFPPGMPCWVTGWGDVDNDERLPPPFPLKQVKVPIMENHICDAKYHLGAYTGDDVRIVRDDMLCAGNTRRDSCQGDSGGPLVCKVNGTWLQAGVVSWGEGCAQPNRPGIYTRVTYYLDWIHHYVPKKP
activated coagulation factor XI (FXIa) (human), sequence (chain, as listed by the source, chain 1 of 2): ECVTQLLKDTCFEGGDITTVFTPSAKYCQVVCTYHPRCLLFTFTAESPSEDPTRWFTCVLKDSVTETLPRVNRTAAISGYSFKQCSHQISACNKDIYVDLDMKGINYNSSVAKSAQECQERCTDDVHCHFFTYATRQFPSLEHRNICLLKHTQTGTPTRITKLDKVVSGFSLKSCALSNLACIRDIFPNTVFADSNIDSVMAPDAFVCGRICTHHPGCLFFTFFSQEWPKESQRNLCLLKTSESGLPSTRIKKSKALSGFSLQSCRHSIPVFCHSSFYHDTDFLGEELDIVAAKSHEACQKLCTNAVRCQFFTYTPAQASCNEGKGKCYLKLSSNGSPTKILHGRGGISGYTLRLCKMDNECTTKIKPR
activated coagulation factor XI (FXIa) (human), sequence (chain, as listed by the source, chain 2 of 2): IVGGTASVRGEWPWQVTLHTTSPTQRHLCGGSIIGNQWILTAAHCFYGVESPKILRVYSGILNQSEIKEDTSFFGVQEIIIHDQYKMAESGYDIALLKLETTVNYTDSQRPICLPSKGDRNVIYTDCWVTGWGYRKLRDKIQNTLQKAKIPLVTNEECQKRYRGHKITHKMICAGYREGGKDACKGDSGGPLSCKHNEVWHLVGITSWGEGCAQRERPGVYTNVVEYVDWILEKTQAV
trypsin (sequencing grade), sequence (P07477 16-247): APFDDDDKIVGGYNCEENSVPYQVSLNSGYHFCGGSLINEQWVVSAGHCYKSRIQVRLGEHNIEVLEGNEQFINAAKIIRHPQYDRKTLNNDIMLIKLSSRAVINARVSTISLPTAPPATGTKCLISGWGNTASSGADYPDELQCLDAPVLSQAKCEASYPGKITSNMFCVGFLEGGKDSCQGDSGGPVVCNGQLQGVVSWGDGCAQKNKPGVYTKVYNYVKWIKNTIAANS

B1: recombinant Simukunin (rSV-66) (natural protein, Simulium vittatum, UniProt B5M0W4 20-102, looked up)
chain: QENVCNLPVDEGVCRALFKRFYYEPATDSCKEFYYGGCEGNGNRFKSKKECILKCQKNKQLIKTRKRKPKKTTKPPIPIISLD
notes: SV-66 (Simukunin), Kunitz family salivary protein of the black fly Simulium vittatum; full-length ORF without signal peptide was cloned; numbers count on: the mature protein; pET-30 Ek/LIC vector; The purified protein ran as a doublet; also called rSimukunin; WT rSimukunin; source: E. coli BL21 (DE3), purified (Ni-NTA, RP-HPLC)
In the case of B1, the inhibition constant Ki in assay [1] is 100 nM. The Ki in assay [2] is ~0.65 nM. The “IC50 of inhibition of enzyme activity (fluorogenic peptidyl substrate, 250 µM); kallikrein 0.08 nM” value in [3] turned out to be 91.8 nM. Further, the “IC50 of inhibition of enzyme activity (fluorogenic peptidyl substrate, 250 µM); cathepsin G 6.7 nM” value in assay [4] came to 217 nM. For the same molecule, the “IC50 of inhibition of enzyme activity (fluorogenic peptidyl substrate, 250 µM); Factor XIa 0.06 nM” value in [5] turned out to be 56.7 nM. Moreover, the “IC50 of inhibition of enzyme activity (fluorogenic peptidyl substrate, 250 µM); β-tryptase 0.01 nM” value in assay [6] was determined as 66.8 nM. The “IC50 of inhibition of enzyme activity (fluorogenic peptidyl substrate, 250 µM); trypsin 0.1 nM” value in [7] amounted to 379 nM. For the same molecule, the “IC50 of inhibition of enzyme activity (fluorogenic peptidyl substrate, 250 µM); plasmin 0.2 nM” value in assay [8] worked out at 32.2 nM. The “IC50 of inhibition of enzyme activity (fluorogenic peptidyl substrate, 250 µM); elastase 0.18 nM” value in assay [9] was found to be 4.9 nM. In addition, in assay [10], the Kd turned out to be 0.4 nM, the koff worked out at 0.0173 s⁻¹ and the kon stood at 4.3e+07 M⁻¹ s⁻¹.

Broadly, the Ki is the dissociation constant of the complex between target and ligand, obtained from inhibition or displacement. One may read the Kd as a measure of binding affinity in units of concentration. A high value points to weaker binding. The koff is a measure of how fast the partners let go of each other. One may read the kon as the rate constant with which the complex forms.
